Laboratory results taken from patent US20180172683A1, “METHODS FOR ANALYZING THE INTERACTION BETWEEN A TARGET PROTEIN AND A LIGAND” (UNIVERSITY OF SOUTHERN CALIFORNIA, priority 2015, published 2018).
Where “and” joins values, the source holds several entries; their conditions need not be identical. Equal values may be shown once.

Legend:
[1] = target: B-cell lymphoma extra-large protein (Bcl-xL), first 209 amino acids with N-terminal avitag (UniProt Q07817); experiment: equilibrium AMMP, divalent model
[2] = target: B-cell lymphoma extra-large protein (Bcl-xL), first 209 amino acids with N-terminal avitag (UniProt Q07817); experiment: equilibrium ELISA, divalent model
[3] = target: B-cell lymphoma extra-large protein (Bcl-xL), first 209 amino acids with N-terminal avitag (UniProt Q07817); experiment: forward equilibrium assay, Kd-only fit, divalent model
[4] = target: B-cell lymphoma extra-large protein (Bcl-xL), first 209 amino acids with N-terminal avitag (UniProt Q07817); experiment: forward equilibrium assay, Kd-only fit, monovalent model (said to fit poorly)
[5] = target: B-cell lymphoma extra-large protein (Bcl-xL), first 209 amino acids with N-terminal avitag (UniProt Q07817); experiment: forward equilibrium assay, Kd and [L]0 fit simultaneously, monovalent and divalent models
[6] = target: B-cell lymphoma extra-large protein (Bcl-xL), first 209 amino acids with N-terminal avitag (UniProt Q07817); experiment: Kd2 (monovalently bound mAb to a second Bcl-xL), divalent model, reverse assay only, known [L]0
[7] = target: B-cell lymphoma extra-large protein (Bcl-xL), first 209 amino acids with N-terminal avitag (UniProt Q07817); experiment: Kd1 (free mAb to Bcl-xL), divalent model, forward and reverse equilibrium assays combined, known [L]0
[8] = target: B-cell lymphoma extra-large protein (Bcl-xL), first 209 amino acids with N-terminal avitag (UniProt Q07817); experiment: Kd2 (monovalently bound mAb to a second Bcl-xL), divalent model, reverse assay only, Kd and [L]0 fit simultaneously
[9] = target: B-cell lymphoma extra-large protein (Bcl-xL), first 209 amino acids with N-terminal avitag (UniProt Q07817); experiment: Kd1 (free mAb to Bcl-xL), divalent model, forward and reverse equilibrium assays combined, Kd and [L]0 fit simultaneously
[10] = target: B-cell lymphoma extra-large protein (Bcl-xL), first 209 amino acids with N-terminal avitag (UniProt Q07817); experiment: reverse equilibrium assay, divalent model; percent of monovalently bound mAb that does not interact with immobilized Bcl-xL

Sequence of B-cell lymphoma extra-large protein (Bcl-xL), first 209 amino acids with N-terminal avitag (Q07817 other isoform, or with tags, fused parts or gaps): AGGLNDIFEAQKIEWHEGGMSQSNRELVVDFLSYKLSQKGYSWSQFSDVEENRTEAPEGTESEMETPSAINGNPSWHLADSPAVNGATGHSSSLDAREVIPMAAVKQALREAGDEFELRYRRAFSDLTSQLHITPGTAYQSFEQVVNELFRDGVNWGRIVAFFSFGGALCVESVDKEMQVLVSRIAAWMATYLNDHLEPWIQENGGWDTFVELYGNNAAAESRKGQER

Substance: 54H6 monoclonal antibody against Bcl-xL (commercial)
- Kd [1]: 0.012 nM
- Kd [2]: 0.02 nM
- Kd [3]: 0.014 nM
- Kd [4]: 0.038 nM
- Kd [5]: 0.011 nM
- Kd [6]: 3.3 nM
- Kd [7]: 0.021 nM
- Kd [8]: 4 nM
- Kd [9]: 0.019 nM
- percent of monovalently bound mAb not interacting with immobilized Bcl-xL [10]: 74% and 73%
